In this series the target is T1, Rv3066 (TetR-family regulator) (Mycobacterium tuberculosis H37Rv, UniProt I6X658 1-202).
T1 sequence: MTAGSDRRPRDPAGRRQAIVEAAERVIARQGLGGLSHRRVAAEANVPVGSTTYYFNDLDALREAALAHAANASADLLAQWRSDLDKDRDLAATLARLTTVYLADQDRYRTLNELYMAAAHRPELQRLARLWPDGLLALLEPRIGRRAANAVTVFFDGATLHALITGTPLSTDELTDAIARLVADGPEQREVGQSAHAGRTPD
As to the kind of experiment: fluorescence polarization.

B1: 30-bp IR1 dsDNA, fluorescein (dsDNA)
DNA 1: CGAGCCTCCTTTGTGTACATTTGTACATGT
DNA 2: ACATGTACAAATGTACACAAAGGAGGCTCG
On to B1, for which the Kd was found to be 4.4 ± 0.3 nM.

What is called Kd is a measure of binding affinity in units of concentration. The low end stands for higher affinity, the high end for lower affinity.

The values above are taken from paper PMC3467072.
